Results published in patent publication US10709762B2, “Use of M-CSF for preventing or treating myeloid cytopenia and related complications” (priority 2013, dated 2020).

Legend:
[1] = system: Pseudomonas aeruginosa; assay: Bacterial tissue load quantification; format: in vivo, mice; conditions: 18 h after infection
Procedure: The infected mice were killed; the organs (spleen, lungs, liver and heart) were harvested and weighed. To determine CFUs per gram of tissue serial dilutions of tissue homogenates were prepared in PBS and plated on Pseudomonas Isolation Agar (PIA) (Difco laboratories) supplemented with appropriate antibiotics and incubated overnight at 37° C. The colonies were counted after 16-24 h.
For analysis of bacterial load, mice were killed at 18 h after infection, tissue homogenates were prepared from spleen, lungs, liver and heart, and were plated to determine CFU.

[2] = system: Aspergillus fumigatus; assay: Fungal culture of infected organs; format: in vivo; conditions: lungs, liver and heart; 48 h after infection; versus untreated mice
Procedure: The organs (lungs, liver, heart and spleen) were harvested, weighed and tissue homogenates were prepared in PBS. The homogenates were serially diluted and 200 μL or each dilution was plated on Sabouraud dextrose agar (DIFCO). The plates were incubated at 25° C. and pictures were taken after 3-5 days.
Furthermore in the mice succumbing to infection death was slightly delayed from D9-D14 in untreated mice to D10-D15 in the rhMCSF treated group. For analysis of fungal load, mice were killed at 48 h after infection and tissue homogenates were prepared from lungs, liver and heart. […] Fungal tissue cultures were incubated beyond 96 h to verify the typical colony morphology of A. fumigatus.

[3] = system: Aspergillus fumigatus; assay: Survival after Aspergillus fumigatus infection following HS/PC transplantation; format: in vivo, mice; conditions: A. fumigatus infection on D8 after irradiation and HS/PC transplantation; three injections of 10 μg M-CSF
Procedure: (§1) To study the functional impact of MCSF mediated HSC commitment during infections, two separate series of experiments were performed. In all experiments, after lethal irradiation of recipients, 2500 HS/PC with 200,000 cKit-carrier cells from donors were grafted.
(§2) Uninfected mice that received HS/PC transplants served as controls for efficient life saving transplantation (black line; FIGS. 8A, 8B and FIGS. 10A, 10B; n=8). Two other groups of mice received either 3 injections of MCSF (rhMCSF or Bacculo virus produced mMCSF) or PBS on the day of HS/PC transplantation.
(§3) One-week post transplantation these mice were challenged with lethal doses of either the bacteria Pseudomonas aeruginosa or the opportunistic fungus Aspergillus fumigatus.
Each mouse received three injections of 10 μg M-CSF: 1 h before HS/PC transplantation; 6 h and 18 h post-transplantation. Human M-CSF (rhMCSF, Chiron Corporation Inc., USA, now part of Novartis AG) and Mouse M-CSF was expressed in baculovirus (Bac. virus mMCSF^56) were used for the study.
Aspergillus fumigatus FGSC 1100 was provided by the Centre International de Ressources Microbiennes—Champignons Filamenteux (CIRM-CF, Marseille, France). For each experiment, cultures were grown on Malt agar medium (2% malt extract, 2% Bacto-agar DIFCO) for 5 days at 25° C. Conidial suspension was prepared in sterile saline according to Bitmansour et al. (2002)^55. […]

[4] = system: Pseudomonas aeruginosa; assay: Survival after Pseudomonas aeruginosa infection following HS/PC transplantation; format: in vivo, mice; conditions: P. aeruginosa infection on Day8 after irradiation and HS/PC transplantation; three injections of 10 μg M-CSF
Procedure: as §1, §2, §3
CD45.1 and C57Bl/6 mice were obtained from Charles River. 10-14 weeks old sex-matched CD45.2 recipients were reconstituted as described^3 with bone marrow derived KSL (c-Kit(CD117)+, Sca+, Lin−) HS/PC isolated from 6-8 weeks old CD45.1. For in vivo injections the indicated concentrations of M-CSF and/or sorted cells were injected in 100-200 μl of PBS into the retro-orbital sinus. For HS/PC transplantation 2500 KLS HS/PC were sorted from CD45.1 mice and mixed with 200,000 cKit− CD45.2 or cKit−, Terr119+ carrier cells prior to injection into lethally irradiated (160 kV, 25 mA, 6.31 Gy) CD45.2 recipient mice. […]

[5] = system: PU.1 expression in sorted HSC; assay: Quantitative RT-PCR of PU.1 expression in sorted HSC in culture; format: cell-based, mice; conditions: 16 h in culture with cytokine, 100 ng/ml
Procedure: CD150+CD34− KSLF HSC or CD150+CD34− CD48− KSLF HSC (single cells) were sorted into S-clone SF-03 medium (Sanko Jyunyaku) with 10% FBS supplemented with 100 U/ml penicillin and […] streptomycin (both Invitrogen) and cultivated in uncoated U-Shape 96 well plates (Greiner) in 100 μl SCM, 20 ng/ml rSCF, 50 ng/ml rTPO+/−100 ng/ml rM-CSF or 100 ng/ml rGM-CSF or 100 ng/ml rG-CSF. All cytokines were murine and from PeproTech. Cell viability was analyzed by AnnexinV and Propidium iodide FACS staining^35.
Total RNA was isolated and reverse transcribed with μMACS™ ONE-STEP T7 template kit (Miltenyi Biotec) and analysed by quantitative real-time PCR using TAQMAN® Universal PCR Master Mix and a 7500 Fast Real Time PCR System sequence detection system (both Applied Biosystem), following the manufacturers' instructions.

B1: rhMCSF: Human M-CSF (rhMCSF, Chiron Corporation Inc., USA, now part of Novartis AG) (protein, UniProt P09603 33-554, looked up)
Macrophage colony-stimulating …: EEVSEYCSHMIGSGHLQSLQRLIDSQMETSCQITFEFVDQEQLKDPVCYLKKAFLLVQDIMEDTMRFRDNTPNAIAIVQLQELSLRLKSCFTKDYEEHDKACVRTFYETPLQLLEKVKNVFNETKNLLDKDWNIFSKNCNNSFAECSSQDVVTKPDCNCLYPKAIPSSDPASVSPHQPLAPSMAPVAGLTWEDSEGTEGSSLLPGEQPLHTVDPGSAKQRPPRSTCQSFEPPETPVVKDSTIGGSPQPRPSVGAFNPGMEDILDSAMGTNWVPEEASGEASEIPVPQGTELSPSRPGGGSMQTEPARPSNFLSASSPLPASAKGQQPADVTGTALPRVGPVRPTGQDWNHTPQKTDHPSALLRDPPEPGSPRISSLRPQGLSNPSTLSAQPQLSRSHSSGSVLPLGELEGRRSTRDRRSPAEPEGGPASEGAARPLPRFNSVPLTDTGHERQSEGSFSPQLQESVFHLLVPSVILVLLAVGGLLFYRWRRRSHQEPQRADSPLEQPEGSPLTQDDRQVELPV
Q: What does the source list for B1?
A: moribund mice [1]: two to three of the 10 mice; tissue load of bacteria ([1]; spleen, lungs, liver and heart, versus untreated mice): significant decrease; tissue load of fungal colonies [2]: significant decrease; survival [3]: 40%; survival [4]: 50%

B2: mouse MCSF: Mouse M-CSF expressed in baculovirus (protein, UniProt P07141 33-552, looked up)
Macrophage colony-stimulating …: KEVSEHCSHMIGNGHLKVLQQLIDSQMETSCQIAFEFVDQEQLDDPVCYLKKAFFLVQDIIDETMRFKDNTPNANATERLQELSNNLNSCFTKDYEEQNKACVRTFHETPLQLLEKIKNFFNETKNLLEKDWNIFTKNCNNSFAKCSSRDVVTKPDCNCLYPKATPSSDPASASPHQPPAPSMAPLAGLAWDDSQRTEGSSLLPSELPLRIEDPGSAKQRPPRSTCQTLESTEQPNHGDRLTEDSQPHPSAGGPVPGVEDILESSLGTNWVLEEASGEASEGFLTQEAKFSPSTPVGGSIQAETDRPRALSASPFPKSTEDQKPVDITDRPLTEVNPMRPIGQTQNNTPEKTDGTSTLREDHQEPGSPHIATPNPQRVSNSATPVAQLLLPKSHSWGIVLPLGELEGKRSTRDRRSPAELEGGSASEGAARPVARFNSIPLTDTGHVEQHEGSSDPQIPESVFHLLVPGIILVLLTVGGLLFYKWKWRSHRDPQTLDSSVGRPEDSSLTQDEDRQVELPV
Q: How did the survival [3] turn out when B2 was run?
A: 60%

Q: And the survival [4]?
A: 87.5%

B3: G-CSF: murine granulocyte colony-stimulating factor from PeproTech (protein, UniProt P09920 31-208, looked up)
Granulocyte …: VPLVTVSALPPSLPLPRSFLLKSLEQVRKIQASGSVLLEQLCATYKLCHPEELVLLGHSLGIPKASLSGCSSQALQQTQCLSQLHSGLCLYQGLLQALSGISPALAPTLDLLQLDVANFATTIWQQMENLGVAPTVQPTQSAMPAFTSAFQRRAGGVLAISYLQGFLETARLALHHLA
Q: With B3 as the molecule, how does the “PU.1 expression in FACS purified HSC” value [5] read?
A: not

B4: GM-CSF: murine granulocyte-macrophage colony-stimulating factor from PeproTech (protein, UniProt P01587 18-141, looked up)
Granulocyte-macrophage …: APTRSPITVTRPWKHVEAIKEALNLLDDMPVTLNEEVEVVSNEFSFKKLTCVQTRLKIFEQGLRGNFTKLKGALNMTASYYQTYCPPTPETDCETQVTTYADFIDSLKTFLTDIPFECKKPGQK
Q: For B4, which “PU.1 expression in FACS purified HSC” value [5] is on record?
A: not
